Reference: patent US20240207382A1 (HEALTH RESEARCH, published 2024)

Target: T1, mouse Factor H (FH from mouse, MyBiosource) (mouse, UniProt P06909 19-1234)
T1 construct: Bought protein, coated on microtiter wells; also called mouse FH
Experiment: quantitative ELISA, mouse FH coated, GST-tagged protein (0.03125-2 µM) detected with anti-GST

T1 sequence (P06909 19-1234): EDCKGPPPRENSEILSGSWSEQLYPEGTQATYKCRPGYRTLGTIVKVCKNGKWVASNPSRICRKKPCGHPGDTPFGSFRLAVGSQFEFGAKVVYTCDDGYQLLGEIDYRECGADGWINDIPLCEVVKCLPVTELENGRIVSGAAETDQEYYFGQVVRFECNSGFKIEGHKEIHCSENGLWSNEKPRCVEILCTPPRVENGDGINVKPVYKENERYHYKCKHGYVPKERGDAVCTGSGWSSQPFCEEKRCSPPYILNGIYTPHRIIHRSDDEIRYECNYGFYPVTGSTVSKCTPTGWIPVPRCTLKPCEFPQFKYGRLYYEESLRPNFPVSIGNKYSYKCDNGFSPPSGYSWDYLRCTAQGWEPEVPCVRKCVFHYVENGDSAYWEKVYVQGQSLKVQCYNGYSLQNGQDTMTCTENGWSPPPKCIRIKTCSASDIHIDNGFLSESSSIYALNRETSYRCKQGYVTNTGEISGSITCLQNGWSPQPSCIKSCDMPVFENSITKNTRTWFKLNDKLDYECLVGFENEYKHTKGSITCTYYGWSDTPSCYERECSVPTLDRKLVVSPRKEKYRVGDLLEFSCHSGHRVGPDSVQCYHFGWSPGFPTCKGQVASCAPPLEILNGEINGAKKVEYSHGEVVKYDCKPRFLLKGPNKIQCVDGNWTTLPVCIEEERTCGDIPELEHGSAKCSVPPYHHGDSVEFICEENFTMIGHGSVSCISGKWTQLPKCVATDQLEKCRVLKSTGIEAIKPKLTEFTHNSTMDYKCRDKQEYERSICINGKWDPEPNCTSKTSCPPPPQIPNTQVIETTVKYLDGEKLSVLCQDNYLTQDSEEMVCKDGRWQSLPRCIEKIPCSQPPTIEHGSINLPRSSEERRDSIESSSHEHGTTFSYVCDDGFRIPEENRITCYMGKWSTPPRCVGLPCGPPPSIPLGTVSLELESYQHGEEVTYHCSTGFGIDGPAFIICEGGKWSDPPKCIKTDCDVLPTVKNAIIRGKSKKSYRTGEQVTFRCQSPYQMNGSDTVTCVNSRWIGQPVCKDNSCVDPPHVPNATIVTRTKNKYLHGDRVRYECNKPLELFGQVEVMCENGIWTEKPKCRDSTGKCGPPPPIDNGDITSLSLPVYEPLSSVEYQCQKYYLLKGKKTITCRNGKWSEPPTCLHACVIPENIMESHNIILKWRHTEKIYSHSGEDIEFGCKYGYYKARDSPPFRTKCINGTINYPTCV

B1: GST tagged CspZ (residue 20 to 236 of CspZ from B. burgdorferi strain B31) (other)
chain: DVSRLNQRNINELKIFVEKAKYYSIKLDAIYNECTGAYNDIMTYSEGTFSDQSKVNQAISIFKKDNKIVNKFKELEKIIEEYKPMFLSKLIDDFAIELDQAVDNDVSNARHVADSYKKLRKSVVLAYIESFDVISSKFVDSKFVEASKKFVNKAKEFVEENDLIALECIVKTIGDMVNDREINSRSRYNNFYKKEADFLGAAVELEGAYKAIKQTLL
notes: also called wild type CspZ; CRASP-2; not shown: glutathione-S-transferase (GST) tag encoded by plasmid pGEX-6P1
binding result: binds
